Data published in patent US20020037996A1 (INSTITUTE OF PHYSICAL AND CHEMICAL RESEARCH, published 2002).

Biological target: T1, nitrile hydratase (NHase) β subunit derived from Rhodococcus sp. N-771, in the nitrosylated (inactive) enzyme (Rhodococcus sp. N-771, UniProt P13449 1-212)
T1 sequence (looked up): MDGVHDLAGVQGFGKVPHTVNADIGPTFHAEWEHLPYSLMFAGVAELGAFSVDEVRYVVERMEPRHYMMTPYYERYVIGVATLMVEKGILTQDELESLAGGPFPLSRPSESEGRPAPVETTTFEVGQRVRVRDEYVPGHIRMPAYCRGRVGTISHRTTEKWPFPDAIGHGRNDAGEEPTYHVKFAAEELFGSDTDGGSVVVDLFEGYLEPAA
Experiment: X-ray crystallography of nitrosylated NHase, 1.7 Å; hetero-tetramer (αβ)2 in the crystal, dimer-tetramer equilibrium in solution by sedimentation equilibrium and dynamic light scattering
Description: Two αβ hetero-dimers existed in an asymmetric unit of the crystal. […] The structural model was crystallographically refined at 1.7 Å resolution (R-factor 0.179, R-free0.228). […] The non-heme iron center was located at the interface between the two subunits in the hetero-dimer.

binding result: binds
B1: nitrile hydratase (NHase) α subunit derived from Rhodococcus sp. N-771, in the nitrosylated (inactive) enzyme (enzyme, UniProt P13448 2-207, looked up)
chain: SVTIDHTTENAAPAQAPVSDRAWALFRALDGKGLVPDGYVEGWKKTFEEDFSPRRGAELVARAWTDPEFRQLLLTDGTAAVAQYGYLGPQGEYIVAVEDTPTLKNVIVCSLCSCTAWPILGLPPTWYKSFEYRARVVREPRKVLSEMGTEIASDIEIRVYDTTAETRYMVLPQRPAGTEGWSQEQLQEIVTKDCLIGVAIPQVPTV
modifications: cysteinesulfinic acid (Cys-SO2H) at 112; cysteinesulfenic acid (Cys-SOH) at 114; non-heme iron with bound NO coordinated by Cys109, Cys112, Ser113, Cys114
